# Laboratory results from publication PMC6814019 (Molecular cell, 2019).
# Several values for one entry are separate records, joined by “and”; a condition that tells them apart may be missing. Identical values can stand only once.
# Molecular target: the molecule itself
# Assay: native MS
protein,measurement,value
"C. elegans MORC-1 (8x-His-MBP-CeMORC) (natural protein, UniProt Q23243 1-845, looked up) MPNDTNGDDYKKLEKASVNLNFLKSNSHTHIGPLSAIAELVDNAYDADARDLHIDFLDINNEQFLELRDDGLGMAREEALHAITFGHSAKCSYKIGRYGNGLKSGAFHLGRELLLVTKKDGIITALLISHRFHEDQGLTNSVFVPCPSFDLDGIPICQTESEKDRFNLEMKIIGKYAPLGSRTLAELADKITGSTGTIIIIGNLRRSVTGELAINTTKDPTDIIVDSGEENKPWRESLRKYLEFIYLKPRMRIHVRGEQVLPKRISENWIAKKQQLISGDQFTAAYNKILDEKNETVKKCEEEKALVMSEIGGTNYTSVRREDRANQKSLRLRVDTSQKNLDSAIADRDAFKKEGKSEKSFHLNMGIETKDRSNNGIHFYINNRLILWGNKEAKFFSKFANSIGISMFLSLDYSLFSAAQNKQGFDHVKDFQVLVRKCNDALRDYSMYLEKSWIPTHLKNTWNVRIYEGDDVWAVLWGVYGYNNTTSTTCVQTHDSARDQVMWTTCGIWKLCQMCRTWIKASRPNEIVGSNDDFFCCENVNHHGCRTIVAEDNDFSKLPEKYDHILPQKRLTNSAPSSSDSQNSIRSASSCSSSSRLLNVAKIESHERIHSSTGGHRLGESFSTTSVKMEPIPNNAHDSHIAEVQRRHSTGRAISPAVSEISRRAGTAPSSQLDMIMGEESDESQEALTIRAPRQRAKRPIERVSRRNRRDQSDDDSDSENEERYATAPKKSKVKGKAVVRAPKMTREKWLEEMLNQFLTAHGEQPLPKNGQRDFDPTNIVEQTSRRNFKNNQRIVDAQQAIMRQIGSVLDHLKRNPTHNFKIPASGTVEEKLKNIEHQIKGKKK",stoichiometry N,2 and 3 and 4
